US20260028387A1 (published 2026)

B1: STYGGGLSV (SEQ ID NO: 1) (peptide)
peptide: STYGGGLSV
notes: synthetic peptide; source gene KRT14, KRT16
B2: MISRTPEV (SEQ ID NO: 17) (peptide)
peptide: MISRTPEV
notes: synthetic peptide; source genes F7, IGHV4-31, IGHG1, IGHG2, IGHG3, IGHG4, IGHM
B3: VLPKLYVKL (SEQ ID NO: 31) (peptide)
peptide: VLPKLYVKL
notes: synthetic peptide; source genes RPS26P11, RPS26, RPS26P28, RPS26P15, RPS26P25, RPS26P58
B4: YTAQIGADIAL (SEQ ID NO: 46) (peptide)
peptide: YTAQIGADIAL
notes: synthetic peptide; source genes TPSB2, TPSAB1
B5: YQDLLNVKM (SEQ ID NO: 54) (peptide)
peptide: YQDLLNVKM
notes: synthetic peptide; source genes DES, NEFM, NEFH, NEFL, VIM, INA
B6: LAYTLGVKQL (SEQ ID NO: 63) (peptide)
peptide: LAYTLGVKQL
notes: synthetic peptide; source genes EEF1A1P5, EEF1A1, EEF1A2
B7: PAVLQSSGLYSL (SEQ ID NO: 68) (peptide)
peptide: PAVLQSSGLYSL
notes: synthetic peptide; source genes IGHV4-31, IGHG1, IGHG2, IGHG3, IGHG4, IGHM
B8: GLLVGSEKVTM (SEQ ID NO: 69) (peptide)
peptide: GLLVGSEKVTM
notes: synthetic peptide; source genes KRT14, KRT16, KRT16P3
B9: FVLDTSESV (SEQ ID NO: 70) (peptide)
peptide: FVLDTSESV
notes: synthetic peptide; source genes COL6A1, COL6A2

Each binder was assayed against T1, HLA-A*02:01 (peptide-receptive MHC class I molecule of the UV-ligand exchange assay) (human) (assay: UV-ligand exchange, anti-b2m ELISA; peptide exchange yield grade (>=10% = +; >=20% = ++; >=50 = +++; >=75% = ++++)).
T1 construct: MHC monomer first loaded with a UV-sensitive peptide (not identified) that is cleaved by UV light and exchanged for the test peptide; captured on streptavidin plates
Source text: Candidate peptides for T cell based therapies according to the present invention were further tested for their MHC binding capacity (affinity). The individual peptide-MHC complexes were produced by UV-ligand exchange, where a UV-sensitive peptide is cleaved upon UV-irradiation, and exchanged with the peptide of interest as analyzed. Only peptide candidates that can effectively bind and stabilize the peptide-receptive MHC molecules prevent dissociation of the MHC complexes. To determine the yield of the exchange reaction, an ELISA was performed based on the detection of the light chain (β2m) of stabilized MHC complexes. The assay was performed as generally described in Rodenko et al. (Rodenko et al., 2006).
96 well MAXISorp plates (NUNC) were coated aver night with 2 ug/ml streptavidin in PBS at room temperature, washed 4× and blocked for 1 h at 37° C. in 2% BSA containing blocking buffer. Refolded HLA-A*02:01/MLA-001 monomers served as standards, covering the range of 15-500 ng/ml. Peptide-MHC monomers of the UV-exchange reaction were diluted 100 fold in blocking buffer. Samples were incubated for 1 h at 37° C., washed four times, incubated with 2 ug/ml HRP conjugated anti-02m for 1 h at 37° C., washed again and detected with TMB solution that is stopped with […]. Absorption was measured at 450 nm. Candidate peptides that show a high exchange yield (preferably higher than 50%, most preferred higher than 75%) are generally preferred for a generation and production of antibodies or fragments thereof, and/or T cell receptors or fragments thereof, as they show sufficient avidity to the MHC molecules and prevent dissociation of the MHC complexes.

Binder	peptide exchange yield [%]
B1	50 to 75
ALWLPTDSATV (synthetic peptide; source gene LAMB3) [ALWLPTDSATV (SEQ ID NO: 11)]	50 to 75
GLASRILDA (synthetic peptide; source gene LAMB3) [GLASRILDA (SEQ ID NO: 12)]	50 to 75
SLSPVILGV (synthetic peptide; source gene IL36RN) [SLSPVILGV (SEQ ID NO: 13)]	≥ 75
RLPNAGTQV (synthetic peptide; source gene ITGA6) [RLPNAGTQV (SEQ ID NO: 14)]	≥ 75
LLANGVYAA (synthetic peptide; source gene ANO1) [LLANGVYAA (SEQ ID NO: 15)]	10 to 20
VLAEGGEGV (synthetic peptide; source gene PDPN) [VLAEGGEGV (SEQ ID NO: 16)]	50 to 75
B2	20 to 50
FLLDQVQLGL (synthetic peptide; source gene TSPAN10) [FLLDQVQLGL (SEQ ID NO: 18)]	50 to 75
GLAPFLLNAV (synthetic peptide; source gene FAM115C) [GLAPFLLNAV (SEQ ID NO: 19)]	50 to 75
IVREFLTAL (synthetic peptide; source gene CRCP) [IVREFLTAL (SEQ ID NO: 21)]	50 to 75
SLYNLGGSKRISI (synthetic peptide; source gene KRT5) [SLYNLGGSKRISI (SEQ ID NO: 2)]	≥ 75
KLNDTYVNV (synthetic peptide; source gene TMEM194A) [KLNDTYVNV (SEQ ID NO: 22)]	50 to 75
KLSDSATYL (synthetic peptide) [KLSDSATYL (SEQ ID NO: 23)]	50 to 75
LLFAGTMTV (synthetic peptide; source gene CYP2S1) [LLFAGTMTV (SEQ ID NO: 24)]	20 to 50
LLPPPPPPA (synthetic peptide; source gene ADAMTS2) [LLPPPPPPA (SEQ ID NO: 25)]	50 to 75
MLAEKLLQA (synthetic peptide; source gene FAT1) [MLAEKLLQA (SEQ ID NO: 26)]	10 to 20
NLREGDQLL (synthetic peptide; source gene AHNAK2) [NLREGDQLL (SEQ ID NO: 27)]	50 to 75
SLDGFTIQV (synthetic peptide; source gene OAS2) [SLDGFTIQV (SEQ ID NO: 28)]	20 to 50
SLDGTELQL (synthetic peptide; source gene TMEM102) [SLDGTELQL (SEQ ID NO: 29)]	50 to 75
SLNGNQVTV (synthetic peptide; source gene QSER1) [SLNGNQVTV (SEQ ID NO: 30)]	10 to 20
B3	20 to 50

Binder	peptide exchange yield [%]
TASAITPSV (synthetic peptide; source gene KRT5) [TASAITPSV (SEQ ID NO: 3)]	50 to 75
YMLDIFHEV (synthetic peptide; source gene HAS3) [YMLDIFHEV (SEQ ID NO: 32)]	20 to 50
GLDVTSLRPFDL (synthetic peptide; source gene FLNA) [GLDVTSLRPFDL (SEQ ID NO: 33)]	50 to 75
SLVSEQLEPA (synthetic peptide; source gene PKP3) [SLVSEQLEPA (SEQ ID NO: 34)]	50 to 75
LLRFSQDNA (synthetic peptide; source gene LAP3) [LLRFSQDNA (SEQ ID NO: 35)]	50 to 75
FLLRFSQDNA (synthetic peptide; source gene LAP3) [FLLRFSQDNA (SEQ ID NO: 36)]	20 to 50
YTQPFSHYGQAL (synthetic peptide; source gene RNPEP) [YTQPFSHYGQAL (SEQ ID NO: 37)]	50 to 75
IAAIRGFLV (synthetic peptide; source gene ABHD11) [IAAIRGFLV (SEQ ID NO: 38)]	50 to 75
LVRDTQSGSL (synthetic peptide; source gene SERPINH1) [LVRDTQSGSL (SEQ ID NO: 39)]	20 to 50
GLAFSLYQA (synthetic peptide; source gene SERPINH1) [GLAFSLYQA (SEQ ID NO: 40)]	20 to 50
GLESEELEPEEL (synthetic peptide; source gene PABPN1) [GLESEELEPEEL (SEQ ID NO: 41)]	20 to 50
NLMASQPQL (synthetic peptide; source gene PKP1) [NLMASQPQL (SEQ ID NO: 5)]	50 to 75
TQTAVITRI (synthetic peptide; source gene FAM83D) [TQTAVITRI (SEQ ID NO: 42)]	10 to 20
KVVGKDYLL (synthetic peptide; source gene CAPZB) [KVVGKDYLL (SEQ ID NO: 43)]	10 to 20
ATGNDRKEAAENSL (synthetic peptide; source gene YWHAE) [ATGNDRKEAAENSL (SEQ ID NO: 44)]	50 to 75
MLTELEKAL (synthetic peptide; source gene S100A8) [MLTELEKAL (SEQ ID NO: 45)]	20 to 50
B4	50 to 75
VLASGFLTV (synthetic peptide; source gene TTPAL) [VLASGFLTV (SEQ ID NO: 47)]	≥ 75
SMHQMLDQTL (synthetic peptide; source gene TPM1) [SMHQMLDQTL (SEQ ID NO: 48)]	20 to 50
GLMKDIVGA (synthetic peptide; source gene KYNU) [GLMKDIVGA (SEQ ID NO: 49)]	50 to 75
KLFGHLTSA (synthetic peptide; source gene PHTF2) [KLFGHLTSA (SEQ ID NO: 51)]	20 to 50
VAIGGVDGNVRL (synthetic peptide; source gene WDR1) [VAIGGVDGNVRL (SEQ ID NO: 52)]	20 to 50

Binder	peptide exchange yield [%]
LLSGDLIFL (synthetic peptide; source gene GJB5) [LLSGDLIFL (SEQ ID NO: 6)]	50 to 75
VVVTGLTLV (synthetic peptide; source gene ARHGDIA) [VVVTGLTLV (SEQ ID NO: 53)]	20 to 50
B5	50 to 75
GAIDLLHNV (synthetic peptide; source gene GBP5) [GAIDLLHNV (SEQ ID NO: 55)]	20 to 50
ALVEVTEHV (synthetic peptide; source gene TMEM132A) [ALVEVTEHV (SEQ ID NO: 56)]	20 to 50
GLAPNTPGKA (synthetic peptide; source gene PRC1) [GLAPNTPGKA (SEQ ID NO: 57)]	50 to 75
LILESIPVV (synthetic peptide; source gene MAPK6) [LILESIPVV (SEQ ID NO: 58)]	20 to 50
SLLDTLREV (synthetic peptide; source gene PPP4R1) [SLLDTLREV (SEQ ID NO: 59)]	50 to 75
VVMEELLKV (synthetic peptide; source gene CYFIP1) [VVMEELLKV (SEQ ID NO: 60)]	20 to 50
TQTTHELTI (synthetic peptide; source gene PCBP1) [TQTTHELTI (SEQ ID NO: 61)]	50 to 75
ALYEYQPLQI (synthetic peptide; source gene MNAT1) [ALYEYQPLQI (SEQ ID NO: 62)]	20 to 50
SIFEGLLSGV (synthetic peptide; source gene GJB5) [SIFEGLLSGV (SEQ ID NO: 7)]	20 to 50
B6	50 to 75
GLTDVIRDV (synthetic peptide; source gene FBXL18) [GLTDVIRDV (SEQ ID NO: 64)]	≥ 75
YVVGGFLYQRL (synthetic peptide; source gene M6PR) [YVVGGFLYQRL (SEQ ID NO: 65)]	50 to 75
LLDEKVQSV (synthetic peptide; source gene TSHZ3) [LLDEKVQSV (SEQ ID NO: 66)]	50 to 75
SMNGGVFAV (synthetic peptide; source gene SLC7A11) [SMNGGVFAV (SEQ ID NO: 67)]	20 to 50
B7	20 to 50
B8	50 to 75
B9	50 to 75
ASDPILYRPVAV (synthetic peptide; source gene PKM) [ASDPILYRPVAV (SEQ ID NO: 71)]	50 to 75
FLPPAQVTV (synthetic peptide; source gene NOL6) [FLPPAQVTV (SEQ ID NO: 72)]	20 to 50
